Results reported in patent US20050265970.

Columns and labels:
[1] = target: Gadd45β-derived peptide 2 (pure synthetic peptide, sequence in FIG. 37C)
[2] = target: Gadd45β-derived peptide 8 (pure synthetic peptide, sequence in FIG. 37C)
[3] = target: T1, GST-Gadd45β (full-length murine Gadd45β directly fused to GST), P22339
T1 chain: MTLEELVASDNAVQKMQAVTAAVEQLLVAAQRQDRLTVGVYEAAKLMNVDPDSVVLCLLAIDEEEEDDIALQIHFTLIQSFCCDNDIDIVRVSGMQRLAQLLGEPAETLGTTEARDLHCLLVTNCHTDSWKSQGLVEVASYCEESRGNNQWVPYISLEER

[4] = target: T2, His6-Gadd45β (full-length human Gadd45β purified from E. coli), O75293
T2 chain: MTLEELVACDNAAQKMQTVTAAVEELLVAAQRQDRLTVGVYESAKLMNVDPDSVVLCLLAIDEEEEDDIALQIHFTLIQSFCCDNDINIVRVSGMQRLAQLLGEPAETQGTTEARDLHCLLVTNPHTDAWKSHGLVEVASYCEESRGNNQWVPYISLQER

B1: FLAG-MKK7 (FLAG-tagged JNKK2) immunoprecipitated from 293 cells (protein)
chain: MAASSLEQKLSRLEAKLKQENREARRRIDLNLDISPQRPRPTLQLPLANDGGSRSPSSESSPQHPTPPARPRHMLGLPSTLFTPRSMESIEIDQKLQEIMKQTGYLTIGGQRYQAEINDLENLGEMGSGTCGQVWKMRFRKTGHVIAVKQMRRSGNKEENKRILMDLDVVLKSHDCPYIVQCFGTFITNTDVFIAMELMGTCAEKLKKRMQGPIPERILGKMTVAIVKALYYLKEKHGVIHRDVKPSNILLDERGQIKLCDFGISGRLVDSKAKTRSAGCAAYMAPERIDPPDPTKPDYDIRADVWSLGISLVELATGQFPYKNCKTDFEVLTKVLQEEPPLLPGHMGFSGDFQSFVKDCLTKDHRKRPKYNKLLEHSFIKRYETLEVDVASWFKDVMAKTESPRTSGVLSQPHLPFFR
- MKK7 kinase assay with GST-JNK1 substrate [1]: the amino acid regions contained in the overlapping, Gadd45β-derived peptides 2 and 8 are sufficient to recapitulate most of the inhibitory activity of Gadd45β on MKK7
- MKK7 kinase assay with GST-JNK1 substrate [2]: the amino acid regions contained in the overlapping, Gadd45β-derived peptides 2 and 8 are sufficient to recapitulate most of the inhibitory activity of Gadd45β on MKK7
- GST-JNK1 phosphorylation by MKK7 (kinase assay) [3]: Both Gadd45β polypeptides, but neither GST nor His6-EF3, blocked GST-JNK1 phosphorylation by MKK7, in a dose-dependent manner
- JNKK2 kinase activity in vitro (phosphorylation of GST-JNK1) [3]: both GST-Gadd45β and His6-Gadd45β effectively suppressed JNKK2 activity, in vitro, even at the lowest concentrations that were tested
- GST-JNK1 phosphorylation by MKK7 (kinase assay) [4]: Both Gadd45β polypeptides, but neither GST nor His6-EF3, blocked GST-JNK1 phosphorylation by MKK7, in a dose-dependent manner
- JNKK2 kinase activity in vitro (phosphorylation of GST-JNK1) [4]: both GST-Gadd45β and His6-Gadd45β effectively suppressed JNKK2 activity, in vitro, even at the lowest concentrations that were tested
